The text below walks through data of US20130338214.

The data set deals with GST-labeled ROR1 (intracellular domain), recombinant, purified from Sf9 insect cells (UniProt Q01973).
Chain of GST-labeled ROR1 (intracellular domain), recombinant, purified from Sf9 insect cells (Q01973 428-937): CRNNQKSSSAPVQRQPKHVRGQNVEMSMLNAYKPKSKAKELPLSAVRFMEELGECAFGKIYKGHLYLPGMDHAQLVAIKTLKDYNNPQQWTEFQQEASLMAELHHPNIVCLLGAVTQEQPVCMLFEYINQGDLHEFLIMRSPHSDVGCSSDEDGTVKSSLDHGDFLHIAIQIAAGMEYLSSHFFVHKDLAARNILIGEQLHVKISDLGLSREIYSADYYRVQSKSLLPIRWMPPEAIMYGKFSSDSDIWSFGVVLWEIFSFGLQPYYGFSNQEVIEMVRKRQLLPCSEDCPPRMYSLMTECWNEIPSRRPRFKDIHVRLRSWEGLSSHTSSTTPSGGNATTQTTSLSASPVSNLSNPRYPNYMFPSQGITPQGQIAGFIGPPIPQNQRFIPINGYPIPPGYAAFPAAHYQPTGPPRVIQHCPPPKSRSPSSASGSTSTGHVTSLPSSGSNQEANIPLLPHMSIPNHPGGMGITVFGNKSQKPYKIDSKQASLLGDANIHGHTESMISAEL

On to “endogenous c-Src (NCI-H1975, 293T, NCI-H23 cells)”, for which the “in vitro ROR1 kinase assay, western blot with anti-phospho-c-Src antibody (c-Src immunoprecipitated from NCI-H23 and 293T lysates as substrate)” value is “c-Src was phosphorylated by ROR1”.
